In PMC3190825:

How the values were obtained:
Test in all cases: SPR
[1] = biological target: Recombinant B6N fragment of protein β (single copy) (group B Streptococcus)
[2] = biological target: IgABR tandem construct of protein β (group B Streptococcus)
[3] = biological target: B6N tandem construct of protein β (group B Streptococcus)

Molecule: Recombinant hSiglec-5-Fc chimera (from UniProt O15389 17-441) (Fc fusion)
- Kd [1]: 14 nM

Molecule: Purified human IgA (natural protein)
- Kd [2]: 61 nM

B1: Recombinant hSiglec-5-Fc chimera (Fc fusion)
chain: EKPVYELQVQKSVTVQEGLCVLVPCSFSYPWRSWYSSPPLYVYWFRDGEIPYYAEVVATNNPDRRVKPETQGRFRLLGDVQKKNCSLSIGDARMEDTGSYFFRVERGRDVKYSYQQNKLNLEVTALIEKPDIHFLEPLESGRPTRLSCSLPGSCEAGPPLTFSWTGNALSPLDPETTRSSELTLTPRPEDHGTNLTCQMKRQGAQVTTERTVQLNVSYAPQTITIFRNGIALEILQNTSYLPVLEGQALRLLCDAPSNPPAHLSWFQGSPALNATPISNTGILELRRVRSAEEGGFTCRAQHPLGFLQIFLNLSVYSLPQLLGPSCSWEAEGLHCRCSFRARPAPSLCWRLEEKPLEGNSSQGSFKVNSSSAGPWANSSLILHGGLSSDLKVSCKAWNIYGSQSGSVLLLQGRSNLGTGVVPAAL
modifications: 125I (chloramine-T method) in the assays with radiolabeled hSiglec-5
- Kd [3]: 3.5 nM
